Reference: PMC10406861

Legend:
[1] = biological target: Histone H2A-H2B dimer (H2B T112C labeled with Cy5.5) (X. laevis) (UniProt P06897)
[2] = biological target: Histone H2A-H2B dimer (H2B T112C labeled with Cy5.5) (X. laevis) (UniProt P06897); remark: listed apart in the source

## 6xHis-Yeast nucleosome assembly protein 1 (Nap1) (from UniProt P25293 1-417) (natural protein)
[1]
  rate constant of H2A-H2B exchange between nucleosomes containing H3KS56ac (three-color smFRET), in the presence of Nap1: 1380 M⁻¹ s⁻¹
[2]
  rate constant of H2A-H2B exchange between CpG methylated nucleosomes (three-color smFRET), in the presence of Nap1: 626 M⁻¹ s⁻¹
